Reference: the RNAGym collection of RNA variant scans (doi:10.1073/pnas.2313332121)
This sample holds only a part of the variants without activity.

B1: TPR 5TU (parent)
chain: GGAUCUUCUCGAUCUAACAAAAAAGACAAAUCUGCCACAAAGCUUGAGAGCAUCUUCGGAUGCAGAGGCGGCAGCCUUCGGUGGCGCGAUAGCGCCAACGUUCUCAACUAUGACACGCAAAACGCGUGCUCCGUUGAAUGGAGUUUAUCAUG

Variants of: B1
Experiment: polymerase ribozyme fitness, log enrichment relative to wild type (log ratio); higher = more active; in vitro selection for triplet polymerase activity
Procedure, shortened: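 For each subunit of a heterodimeric triplet polymerase ribozyme, a mutant library was built by PCR and transcribed, then taken through a single in vitro selection round in triplicate. Selection involved annealing to a biotinylated primer, the partner subunit and triplets, incubation frozen at −7 °C, gel excision of extended constructs, capture on streptavidin beads and RT-PCR. Genotypes were retained after Illumina sequencing of inputs and outputs only with ≥10 input reads and ≥1 read in each output. Fitness is defined as the logarithm of a genotype's enrichment relative to wild-type enrichment, using inverse-variance-weighted averages across replicates, with the logarithm taken to base 2.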

Variant	polymerase ribozyme fitness (log ratio)
A19G C87A C116A G143C U145G G152U	≤ -4.2
A19U C99U G133C U144G	-2.25
A19C G88A C95A C99U	≤ -4.2
C18U G58C C85U C87U	-1.92
A19G A40C C85G A147C	-3.28
A19U C96G A142C	-2.72
A19U A22U A47C G80A G86A C87A C95U U104G A120U	≤ -4.2
C18U G86U	-2.18
A19C U56A U104A A119U	-0.197
A19U C114G	-3.52
A19U A26C C38U A89G A98U A107C	≤ -4.2
A19G A41U C57U G84U U146A A147U U151A	≤ -4.2
A19G A20U C36U C96G	-3.67
A19U A24U A30U U55A C93G C103G A106C C132G U146C	≤ -4.2
A19G U55A C85A	-2.52
C18U G25C C43G C99A	≤ -4.2
A19U C35G C57U U90C C96A C132U	≤ -4.2
A19U A30U U56A G62C C76U	≤ -4.2
A19G A23U A30C G48U U56C A60U C87U	≤ -4.2
C18U G50U C96G U146C	-0.747
C18U U56A U90G C99U A120C C132U U134C	≤ -4.2
A19U G70A U82A U127G	≤ -4.2
A19U C36U G86C C93U G100A G126C	≤ -4.2
A19U G46A C51U A91G G124U U139A	≤ -4.2

Variant	polymerase ribozyme fitness (log ratio)
A19U A22C C93U U145A	-1.22
A19C G65A G83C	-1.84
A19U A21C C54U U134A	≤ -4.2
A19G U31G U44A G80A C123G G141C	≤ -4.2
A19C A21U U101A	0.427
A19C G80A C85G	-0.89
A19C A20C U148A	-3.05
A19U A91C C129A	≤ -4.2
A19U C54A G70A U82A U134G U139A	≤ -4.2
A19G C27A C57A G92U A97G G133A U134G	≤ -4.2
A19U G68C C93G C131G	≤ -4.2
A19U A26G A122G	≤ -4.2
A19C C27A C125U U148G	≤ -4.2
C18U G25C A26C C32G G50U G58C C75U A91G C114A	≤ -4.2
A19C C43U C76A G81C A91G A106U A121C G136U A142G	≤ -4.2
A19G A41C G59A G62A A73U C118G A150U	≤ -4.2
A19G A122C G136C A142C	-3.74
A19C G126U U145A	-0.56
A19C A30U G50A A73C G80U G86A C118A U145G	≤ -4.2
A19G C27U	-1.17
A19U C35G C43A U56A G58U C85U A113G A122C U151A	≤ -4.2
C18U C108U	-3.57
A19U G50A	-1.63
A19U G50U	-0.0269

Variant	polymerase ribozyme fitness (log ratio)
A19U C43U A73U C79U A106U A107C	≤ -4.2
A19G U55A C87A A106G G124C G136C C149A A150C	≤ -4.2
C18U U44A G46U A64G U77A A110C G140C U148A	≤ -4.2
A19U G25A U61A	≤ -4.2
C18U C85A U144G	0.299
A19C A52U	-1.43
A19U A60U C93U C114U	-4.17
A19U A39G G74U C85G G128C C129U	≤ -4.2
A19C G94C U102G	≤ -4.2
A19U G71U G83C U146G	≤ -4.2
A19G C96U C123U	-0.681
A19C C36U G59U A60G C93U U104G	-3.23
A19U A21U C72G A89C C96G G143A	≤ -4.2
A19G C69G C76U U82G G88A G141U A150C	≤ -4.2
A19C C51A G86C	-3.75
A19G G68U C79G G84A G86A U135C G140U	≤ -4.2
A19U A30C G42A C43G C54G G70U U77C C96G A107G	≤ -4.2
C18U G86A G140A	≤ -4.2
C18U G62A G67A U77G C87A U101C C123U G136A	≤ -4.2
A19G A28G C38U A49C G58A G65A C76A C93G	≤ -4.2
A19U C85U	-0.763
C18U C87U C99U A119G C125G U135G	≤ -4.2
A19U G58C C87U C95U C116G	-1.52
A19U G42C G86U A110G C116A G117U	≤ -4.2

Variant	polymerase ribozyme fitness (log ratio)
C18U G84A	-0.579
A19C A24U C57G C75U G92U C118A	-0.536
A19C G86A	-0.455
A19C A28U C75A C85U G92U	≤ -4.2
A19G A40U G62U A121U G141U	-1.46
C18U U53A C85A C96A A137G	≤ -4.2
A19U A26C G46U C93A C95G C108A U151G	≤ -4.2
A19G G84A	-1.52
A19G G84U	-2.39
A19C A30G C87U G128C G136U	≤ -4.2
A19C G92A	-2.38
A19C G92U	0.745
C18U G34A G48U C75U G94C G141U	≤ -4.2
A19G G94U C96U C116A C125U G133U	≤ -4.2
A19U C75U U139G G140A U151G	≤ -4.2
A19U G80A	-0.164
A19U A23U U90G C105A	≤ -4.2
A19C A91U C95A	≤ -4.2
C18U U31G A37C C54U A91C U134C U146C	≤ -4.2
A19U C87U	-0.845
A19U G25U A49C U55G U56G C85U A98G A106G C118U G133A U145G	≤ -4.2
C18U G88C C103A G112C G143C	≤ -4.2
C18U G25U G42C A73U G83U C93U A106G A121C U144A	≤ -4.2
A19C C125U	0.16

Variant	polymerase ribozyme fitness (log ratio)
C18U G65U A73G C85U G141C	≤ -4.2
A19G C123G	-1.22
A19C G88C	-3.96
A19U A41C A73U A91C C93U C129G G140U C149U	≤ -4.2
A19U A30U U55G G59A G86U A150U	≤ -4.2
A19G G59U C85U C95A	-1.78
A19C U53G C85U G92A C103A G141C	≤ -4.2
A19C A60G C96U	0.412
A19G G48C G86A C103U C108G	≤ -4.2
A19U A60G C72U G143U	≤ -4.2
A19U G46A G58C A97U U134A	≤ -4.2
A19G A41C	-1.52
C18U G84A A113G C114U	-2.6
A19U A39G C85U U134G	≤ -4.2
A19C C32U A49G G59U	≤ -4.2
C18U U44A G50A A52U G74A A91U C105G A106G C129G	≤ -4.2
A19C G59A U144C	1.14
A19C C27A A39C C79U C93A U102G G117C	-4.01
A19G A29G G92A C116G	-3.8
C18U C87U G94C C123A G141A	≤ -4.2
A19C C32U C69A U77C C103A G143A U145A	≤ -4.2
A19U G34A A47U C76A C116U	≤ -4.2
A19G G86A	-1.36
A19G A23U C38U G42U G68A U82A	≤ -4.2

Variant	polymerase ribozyme fitness (log ratio)
C18U G81A C87U A97U	-1.14
A19C C36U G70A G80U C105U G152U	-3.99
A19U C38U G50A C79A	≤ -4.2
A19C A21C A26C U44A C57A U61A G68A G86A C118U	≤ -4.2
A19G G83C C87U U101G	≤ -4.2
A19U C51U C54A C85G C132G	≤ -4.2
A19C A29U C54G C108U	≤ -4.2
A19G G48A C75G C93A	≤ -4.2
A19C A41G G59U A91C A107G A120U	≤ -4.2
A19G A52U U53A U82C C87G	≤ -4.2
A19C U55G C96A C108G C116G A119C	≤ -4.2
A19U A23C A91U	≤ -4.2
A19C A21C C76U C87A A110G A120G	≤ -4.2
A19G G50C C75G C85G C103A U135C	≤ -4.2
A19G A24G C43A G59A	≤ -4.2
A19C A41G C131A A138U	≤ -4.2
A19G G58C G59C	0.18
A19U A21U G46C C96A U134A	≤ -4.2
A19U C54G C79A U82C G84A A89C G92C U144C	≤ -4.2
A19G U78G C87G A98U U101G G126A	≤ -4.2
A19U G83A	-0.555
A19U A28G G50A G68A G94U	≤ -4.2
A19C U61C G141C U144C C149A	≤ -4.2
A19G C32A A47C G59C C85U A106C G143C	≤ -4.2

Variant	polymerase ribozyme fitness (log ratio)
A19C A47C C54A U56A C87A G100C G136A	≤ -4.2
A19U G42U A113G A121U G124C U148A	≤ -4.2
A19U A20C A73G G92U C116A	-0.142
A19U A73U	-0.608
A19U C57G C96G C116G	-0.687
A19G U55A G83A A97G G124A A142C	≤ -4.2
A19G C96U U101G	-0.801
A19U A52G G94C	-1.72
A19U A23G G84A U101G A115C	-3.62
A19G C85U	-1.3
A19G C85G	-2.84
A19G A29G C38A U53A C76U G86U C99U	≤ -4.2
A19U C57A A60C C93A	≤ -4.2
A19C U53A	-1.57
A19C U56A A91U A147C	≤ -4.2
A19G A91C C116A G141A U145G	≤ -4.2
A19G A89C U134G	-3.68
A19G C57A G65A	-2.01
A19G G50U U55A C96U U145G	-2.18
A19G C51U A52C A60U G65A G84U C85A C87U A98C A138G	≤ -4.2
A19C A20G G136A A147G	-2.36
A19G C54G G70A A73G G92A A106G C116G A137G	≤ -4.2
A19G A26U U31C G92A C96G C103U	≤ -4.2
